Test results as given in US20170015742A1 (published 2017).
Residue numbers refer to the chain shown, from its start.

B1: hBDI-9E8.1 (antibody, V domains shown)
VH: EVTLRESGPALVKPTQTLTLTCTFSGFSLSTYGMGVGWIRQPPGKALEWLANIWWDDDKYYNPSLKNRLTISKDTSKNQVVLTMTNMDPVDTATYYCARIESIGTTYSFDYWGQGTMVTVSS
VL: NFMLTQPHSVSESPGKTVTISCERSSGDIGDSYVSWYQQRPGSSPTTVIYADDQRPSGVPDRFSGSIDSSSNSASLTISGLKTEDEADYYCQSYDINIDIVFGGGTKLTVL
notes: Humanized IgG
B2: hBDI-9E8.2 (antibody, V domains shown)
VH: B1 VH
VL: B1 VL with S44P, T47N, Y90F
notes: Humanized IgG
B3: hBDI-9E8.5 (antibody, V domains shown)
VH: B1 VH with A46G, V80A, M84I
VL: B1 VL
notes: Humanized IgG
B4: hBDI-9E8.6 (antibody, V domains shown)
VH: B1 VH with A46G, V80A, M84I
VL: B1 VL with S44P, T47N, Y90F
notes: Humanized IgG
B5: hBDI-9E8.3 (antibody, V domains shown)
VH: B1 VH
VL: EIVLTQSPGTLSLSPGERATLSCERSSGDIGDSYVSWYQQKPGQAPRLLIYADDQRPSGIPDRFSGSGSGTDFTLTISRLEPEDFAVYYCQSYDINIDIVFGGGTKVEIK
notes: Humanized IgG
B6: hBDI-9E8.4 (antibody, V domains shown)
VH: B1 VH
VL: B5 VL with I2F, L49V
notes: Humanized IgG
B7: hBDI-9E8.7 (antibody, V domains shown)
VH: B1 VH with A46G, V80A, M84I
VL: B5 VL
notes: Humanized IgG
B8: hBDI-9E8.9 (antibody, V domains shown)
VH: B1 VH with V80A, M84I, M117T
VL: DFVLTQSPDSLAVSLGERATINCERSSGDIGDSYVSWYQQKPGQPPKNVIYADDQRPSGVPDRFSGSGSGNSASLTISSLQAEDVAVYFCQSYDINIDIVFGGGTKVEIK
notes: Humanized IgG
B9: hBDI-9E8.10 (antibody, V domains shown)
VH: B1 VH with V80A, M84I, M117T
VL: DFQLTQSPSSLSASVGDRVTITCERSSGDIGDSYVSWYQQKPGKAPKNVIYADDQRPSGVPSRFSGSGSGNSASLTISSLQPEDFATYYCQSYDINIDIVFGQGTKVEIK
notes: Humanized IgG
B10: hBDI-9E8.11 (antibody, V domains shown)
VH: EVQLVESGGGLVQPGGSLRLSCAFSGFSLSTYGMGVGWIRQAPGKGLEWLANIWWDDDKYYNPSLKNRLTISKDTSKNQAYLQINSLRAEDTAVYYCARIESIGTTYSFDYWGQGTLVTVSS
VL: B8 VL
notes: Humanized IgG
B11: hBDI-9E8.12 (antibody, V domains shown)
VH: B10 VH
VL: B9 VL
notes: Humanized IgG
B12: hBDI-5H1.1 (antibody, V domains shown)
VH: EVTLRESGPALVKPTQTLTLTCTFSGFSLSTFGMGVGWIRQPPGKALEWLANIWWDDDKYYNPSLKNRLTISKDTSKNQVVLTMTNMDPVDTATYYCARISTGISSYYVMDAWGQGTTVTVSS
VL: B1 VL with S32T, A51G, D52N, I96S, N97D
notes: Humanized IgG
B13: hBDI-5H1.2 (antibody, V domains shown)
VH: B12 VH
VL: B1 VL with S32T, S44P, T47N, A51G, D52N, Y90F, I96S, N97D
notes: Humanized IgG
B14: hBDI-5H1.5 (antibody, V domains shown)
VH: B12 VH with R5K, V80A, M84I
VL: B1 VL with S32T, A51G, D52N, I96S, N97D
notes: Humanized IgG
B15: hBDI-5H1.6 (antibody, V domains shown)
VH: B12 VH with R5K, V80A, M84I
VL: B1 VL with S32T, S44P, T47N, A51G, D52N, Y90F, I96S, N97D
notes: Humanized IgG
B16: hBEW-9A8.17 (antibody, V domains shown)
VH: EIQLVQSGSELKKPGASVKVSCKASGYTFTNYGMYWVKQAPGQGLEYMGWINTETGKPIYADDFKGRFVFSLDTSVSTAYLQISSLKAEDTAVYYCARVDYDGSFWFAYWGQGTLVTVSS
VL: ETVLTQSPATLSLSPGERATLSCRASESVSTVIHWYQQKPGQQPRLLIHGASNLESGVPARFSGSGSGTDFTLTISSLEPEDFAVYFCQQHWNDPPTFGQGTKLEIK
notes: Humanized IgG made from pHybE vectors in HEK293 cells
B17: hBEW-9A8.21 (antibody, V domains shown)
VH: EIQLVQSGAEVKKPGASVKVSCKASGYTFTNYGMYWVRQAPGQGLEWMGWINTETGKPIYADDFKGRFTFTLDTSTSTAYMELRSLRSDDTAVYYCARVDYDGSFWFAYWGQGTLVTVSS
VL: B16 VL
notes: as for B16
B18: hBEW-5C3.1 (antibody, V domains shown)
VH: EIQLVQSGSELKKPGASVKVSCKASGYTFTNYGVYWVKQAPGQGLEYMGWINTETGKPTYADDFKGRFVFSLDTSVSTAYLQISSLKAEDTAVYYCARARQLDWFVYWGQGTLVTVSS
VL: DTVLTQSPATLSLSPGERATLSCRARESLTTSLSWFQQKPGQQPRLLIYGASKLESGVPARFSGSGSGTDFTLTISSLEPEDFAVYFCQQSWYDPPTFGGGTKVEIK
notes: as for B16
B19: hBEW-5C3.4 (antibody, V domains shown)
VH: B18 VH
VL: DTQLTQSPSSLSASVGDRVTISCRARESLTTSLSWFQQKPGKQPKLLIYGASKLESGVPSRFSGSGSGTDFTLTISSLQPEDFATYFCQQSWYDPPTFGGGTKVEIK
notes: as for B16
B20: hBEW-5C3.5 (antibody, V domains shown)
VH: EIQLVQSGAEVKKPGSSVKVSCKASGYTFTNYGVYWVKQAPGQGLEYMGWINTETGKPTYADDFKGRFTFTLDKSTSTAYMELSSLRSEDTAVYFCARARQLDWFVYWGQGTLVTVSS
VL: B19 VL
notes: as for B16
B21: hBEW-9E10.1 (antibody, V domains shown)
VH: EIQLVQSGSELKKPGASVKVSCKASGYTFTNYGMYWVKQAPGQGLEYMGWIDTETGRPTYADDFKGRFVFSLDTSVSTAYLQISSLKAEDTAVYFCARWSGDTTGIRGPWFAYWGQGTLVTVSS
VL: DIRMTQSPSSLSASVGDRVTIECLASEDIYSDLAWYQQKPGKSPKLLIYNANGLQNGVPSRFSGSGSGTDYSLTISSLQPEDVATYFCQQYNYFPGTFGQGTKLEIK
notes: Humanized IgG made from pHybE vectors in HEK293 cells; also called AB642 (9E10.1)
B22: hBEW-9E10.4 (antibody, V domains shown)
VH: B21 VH
VL: B21 VL with E22T, S72T
notes: as for B16
B23: hBEW-9E10.2 (antibody, V domains shown)
VH: EIQLVQSGAEVKKPGSSVKVSCKASGYTFTNYGMYWVKQAPGQGLEYMGWIDTETGRPTYADDFKGRFTFTADKSTSTAYMELSSLRSEDTAVYFCARWSGDTTGIRGPWFAYWGQGTLVTVSS
VL: B21 VL
notes: as for B16
B24: hBEW-9E10.3 (antibody, V domains shown)
VH: B23 VH with I2V, K38R, Y47W, F95Y
VL: B21 VL
notes: as for B16
B25: hBEW-9E10.5 (antibody, V domains shown)
VH: B23 VH
VL: B21 VL with E22T, S72T
notes: as for B16
B26: hBEW-9E10.6 (antibody, V domains shown)
VH: B23 VH with I2V, K38R, Y47W, F95Y
VL: B21 VL with E22T, S72T
notes: as for B16
B27: hBEW-1B10.1 (antibody, V domains shown)
VH: EVQLVESGGGLVQPGGSLRLSCAASGFSFSKYDMAWFRQAPGKGLEWVASITTSGVGTYYRDSVKGRFTVSRDNAKSTLYLQMNSLRAEDTAVYYCARGYGAMDAWGQGTTVTVSS
VL: DIQMTQSPSSLSASVGDRVTITCKASQDIDDYLSWYQQKPGKSPKLVIYAATRLADGVPSRFSGSGSGTDYTLTISSLQPEDFATYYCLQSSSTPWTFGGGTKVEIK
notes: as for B16
B28: hBEW-1B10.2 (antibody, V domains shown)
VH: B27 VH with S77N, T78S
VL: B27 VL
notes: as for B16

The binders below were run against T1, Human PDGF-BB (human, UniProt P01127 82-190) (assay: SPR (Biacore), antibody captured via anti-human Fc, antigen in solution).
T1 construct: Recombinant human PDGF-BB, a homodimer of two B chains; also called hPDGF-BB; huPDGF-BB
T1 sequence (P01127 82-190 limits assumed): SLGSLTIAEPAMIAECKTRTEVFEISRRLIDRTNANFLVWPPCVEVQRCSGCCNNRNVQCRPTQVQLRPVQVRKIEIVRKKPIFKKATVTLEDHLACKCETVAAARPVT
Protocol: (§1) For example, approximately 9000 RU of goat anti-human Fc specific polyclonal antibody (Thermo Fisher Scientific Inc., Rockford, Ill.) diluted in 10 mM sodium acetate (pH 4.5) is directly immobilized across a CM5 research grade biosensor chip using a standard amine coupling kit according to manufacturer's instructions and procedures at 25 μg/ml. Unreacted moieties on the biosensor surface were blocked with ethanolamine. For kinetic analysis, rate equations derived from the 1:1 Langmuir binding model were fitted simultaneously to multiple antigen injections (using global fit analysis) with the use of Scrubber 2 (BioLogic Software), Biacore Biaevaluation 4.0.1 software or Biacore T100 Evaluation software. Purified antibodies or DVD-Ig molecules were diluted in running buffer for capture across goat anti-human Fc reaction surfaces. Antibodies or DVD-Ig molecules to be captured as a ligand (1 μg/ml) were injected over reaction matrices at a flow rate of 10 μl/minute. During the assay, all measurements were referenced against the capture surface alone (i.e., with no captured antibody or DVD-Ig molecule). […] The equilibrium dissociation constant KD (M) of the reaction between antibodies and the target antigen was then calculated from the kinetic rate constants by the following formula: KD=Koff/Kₒₙ. Binding was recorded as a function of time and kinetic rate constants were calculated.

| Binder | Kd [nM] | kon [M⁻¹ s⁻¹] |
| --- | --- | --- |
| B1 | ≤ 0.56 | ≥ 1e+07 |
| B2 | ≤ 0.51 | ≥ 1e+07 |
| B3 | ≤ 0.21 | ≥ 1e+07 |
| B4 | ≤ 0.21 | ≥ 1e+07 |
| B5 | ≤ 0.065 | ≥ 1e+07 |
| B6 | ≤ 0.021 | > 1e+07 |
| B7 | ≤ 0.045 | ≥ 1e+07 |
| B8 | ≤ 0.15 | ≥ 1e+07 |
| B9 | ≤ 0.18 | ≥ 1e+07 |
| B10 | ≤ 0.074 | ≥ 1e+07 |
| B11 | ≤ 0.21 | ≥ 1e+07 |
| B12 | ≤ 0.41 | ≥ 1e+07 |
| B13 | ≤ 0.19 | ≥ 1e+07 |
| B14 | ≤ 0.17 | ≥ 1e+07 |
| B15 | ≤ 0.082 | ≥ 1e+07 |

What follows are binders tested against T2, human VEGF-A (human, UniProt P15692-4 27-191, limits assumed) (assay: SPR (Biacore), antibody captured by anti-human Fc, VEGF-A injected).
T2 construct: also called huVEGF-A
T2 sequence (P15692 other isoform, or with tags, fused parts or gaps limits assumed): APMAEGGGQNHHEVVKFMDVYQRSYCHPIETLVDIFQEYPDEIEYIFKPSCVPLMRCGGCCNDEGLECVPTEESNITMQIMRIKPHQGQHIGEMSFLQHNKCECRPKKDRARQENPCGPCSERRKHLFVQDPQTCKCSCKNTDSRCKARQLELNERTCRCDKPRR
Protocol: as §1

| Binder | Kd [pM] | kon [M⁻¹ s⁻¹] |
| --- | --- | --- |
| B16 | 1.7 | 7.9e+06 |
| B17 | 6.7 | 5.8e+06 |
| B18 | 6 | 1.1e+07 |
| B19 | 8.6 | 9.9e+06 |
| B20 | 8.5 | 1.2e+07 |
| B21 | 2.1 | 1.2e+07 |
| B22 | 2.1 | 1.2e+07 |
| B23 | 12 | 1.6e+07 |
| B24 | 3.2 | 1.3e+07 |
| B25 | 15 | 1.6e+07 |
| B26 | 2.6 | 1.5e+07 |
| B27 | 18 | 7.6e+06 |
| B28 | 20 | 7.5e+06 |
